The source of these data is article PMC12753105, “Evolution of a fuzzy ribonucleoprotein complex in viral assembly” (eLife, 2025).

This data set concerns the molecule itself. Nature of the data set: dynamic light scattering.

B1: LRS peptide N_(210-246):G214C (peptide)
peptide: MAGNCGDAALALLLLDRLNQLESKMSGKGQQQQGQTV
notes: also called N_(LRS, 210-246):G214C; G214C cysteine mutant LRS peptide
Regarding B1, the binding result was “binds”.
